Results from article PMC8922275, “DNA-Dependent Binding of Nargenicin to DnaE1 Inhibits Replication in Mycobacterium tuberculosis” (ACS Infectious Diseases, 2022).

Legend:
DnaE1 = target: T1, DnaE1 (Mycobacterium tuberculosis, UniProt P9WNT7); test: ([…] Å) with DNA; […]; assay type: biochemical
T1 construct: full-length
T1 sequence (P9WNT7 1-1184): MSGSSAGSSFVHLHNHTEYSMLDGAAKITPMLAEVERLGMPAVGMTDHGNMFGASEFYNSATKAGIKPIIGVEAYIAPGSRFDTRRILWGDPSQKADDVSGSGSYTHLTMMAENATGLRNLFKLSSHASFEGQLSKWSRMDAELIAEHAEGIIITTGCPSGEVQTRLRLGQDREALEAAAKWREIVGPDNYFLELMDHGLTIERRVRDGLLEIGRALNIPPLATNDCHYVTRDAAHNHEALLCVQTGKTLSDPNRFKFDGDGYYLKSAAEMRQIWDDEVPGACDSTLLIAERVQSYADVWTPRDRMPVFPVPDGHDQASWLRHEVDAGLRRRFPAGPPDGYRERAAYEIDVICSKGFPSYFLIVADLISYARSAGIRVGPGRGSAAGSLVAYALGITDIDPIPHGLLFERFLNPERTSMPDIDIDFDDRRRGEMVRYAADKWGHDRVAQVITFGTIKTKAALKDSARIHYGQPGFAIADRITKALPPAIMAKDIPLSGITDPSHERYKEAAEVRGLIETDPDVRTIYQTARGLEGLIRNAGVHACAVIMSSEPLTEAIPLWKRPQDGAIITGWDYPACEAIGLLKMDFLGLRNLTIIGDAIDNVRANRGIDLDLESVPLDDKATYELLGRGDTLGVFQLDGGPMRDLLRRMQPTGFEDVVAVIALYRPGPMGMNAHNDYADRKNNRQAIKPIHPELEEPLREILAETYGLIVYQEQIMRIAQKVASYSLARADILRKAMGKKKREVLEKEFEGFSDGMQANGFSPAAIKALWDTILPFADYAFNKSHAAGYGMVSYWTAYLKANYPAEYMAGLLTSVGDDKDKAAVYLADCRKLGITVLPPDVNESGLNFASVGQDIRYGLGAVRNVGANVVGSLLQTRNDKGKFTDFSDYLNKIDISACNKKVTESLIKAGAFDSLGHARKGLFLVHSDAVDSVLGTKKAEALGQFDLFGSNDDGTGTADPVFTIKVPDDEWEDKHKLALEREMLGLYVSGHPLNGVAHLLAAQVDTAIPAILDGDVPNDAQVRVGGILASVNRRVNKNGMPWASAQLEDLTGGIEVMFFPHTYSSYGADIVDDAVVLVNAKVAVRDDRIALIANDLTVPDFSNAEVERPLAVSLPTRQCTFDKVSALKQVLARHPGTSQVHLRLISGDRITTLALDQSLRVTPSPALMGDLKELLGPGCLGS

[1] = target: T2, DNA polymerase III α (Pol IIIα) (Escherichia coli, UniProt P10443); test: real-time fluorescence-quench DNA polymerase assay; assay type: biochemical
T2 construct: gene dnaE

DnaE = DnaE (Staphylococcus aureus, UniProt Q5HF71); test: real-time fluorescence-quench DNA polymerase assay (text […]; Figure […] legend […]); assay type: biochemical
[2] = target: T3, DnaE (replicative DNA polymerase) (Staphylococcus aureus, UniProt Q9F1K0 1-1065); test: fluorescence anisotropy; Anisotropy: 5 nM DNA, 25 mM HEPES pH 7.5, 50 mM potassium glutamate, 2 mM DTT, 0.5 mg/mL BSA, 24 °C. Cryo-EM: 20 mM PIPES pH 7.0, 50 mM potassium glutamate, 5 mM MgCl2, 2 mM DTT, 0.01% Tween-20; conditions: protein: recombinant; label: 5'-Cy3 on primer (strand 1); 24 bp duplex, 5' overhang 30 nt on template
T3 sequence: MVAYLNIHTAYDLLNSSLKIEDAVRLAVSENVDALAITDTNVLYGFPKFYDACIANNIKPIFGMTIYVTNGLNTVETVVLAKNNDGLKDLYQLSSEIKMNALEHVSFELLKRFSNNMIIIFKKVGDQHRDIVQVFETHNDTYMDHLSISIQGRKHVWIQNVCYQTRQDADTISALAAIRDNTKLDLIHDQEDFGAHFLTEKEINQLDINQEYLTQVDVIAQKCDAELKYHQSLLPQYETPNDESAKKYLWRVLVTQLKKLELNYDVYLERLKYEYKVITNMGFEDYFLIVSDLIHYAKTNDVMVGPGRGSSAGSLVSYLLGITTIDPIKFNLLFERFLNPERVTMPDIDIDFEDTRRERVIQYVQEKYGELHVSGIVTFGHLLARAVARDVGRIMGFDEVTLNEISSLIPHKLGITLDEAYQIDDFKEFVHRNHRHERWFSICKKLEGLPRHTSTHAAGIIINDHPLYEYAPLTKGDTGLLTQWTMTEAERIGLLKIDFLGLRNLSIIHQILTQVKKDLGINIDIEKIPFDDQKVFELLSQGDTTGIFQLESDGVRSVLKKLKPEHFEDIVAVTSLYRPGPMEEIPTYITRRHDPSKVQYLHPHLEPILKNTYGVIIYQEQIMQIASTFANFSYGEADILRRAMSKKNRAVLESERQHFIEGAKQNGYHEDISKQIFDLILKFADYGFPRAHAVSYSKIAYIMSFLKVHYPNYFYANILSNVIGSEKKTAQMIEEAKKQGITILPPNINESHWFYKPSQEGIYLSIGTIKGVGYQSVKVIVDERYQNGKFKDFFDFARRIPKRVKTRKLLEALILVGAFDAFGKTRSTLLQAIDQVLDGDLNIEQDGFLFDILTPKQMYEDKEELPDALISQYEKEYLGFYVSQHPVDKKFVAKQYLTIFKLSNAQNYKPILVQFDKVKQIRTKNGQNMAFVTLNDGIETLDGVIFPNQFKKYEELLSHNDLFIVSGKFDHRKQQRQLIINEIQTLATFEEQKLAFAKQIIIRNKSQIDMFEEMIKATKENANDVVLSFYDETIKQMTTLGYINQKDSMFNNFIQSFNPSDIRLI

DnaE S765L = DnaE S765L (Staphylococcus aureus, UniProt Q9F1K0 1-1065, S765L); test: as above; conditions: protein: recombinant; label: 5'-Cy3 on primer (strand 1); 24 bp duplex, 5' overhang 30 nt on template
[3] = target: Pol IIIα (replicative DNA polymerase) (Escherichia coli, UniProt P10443 1-1160); test: as above; conditions: protein: recombinant; label: 5'-Cy3 on primer (strand 1); 24 bp duplex, 5' overhang 30 nt on template
[4] = target: T4, DnaE1 (replicative DNA polymerase) (Mycobacterium tuberculosis, UniProt P9WNT7 1-1184); test: fluorescence anisotropy; conditions: protein: recombinant; label: 5'-Cy3 on primer (strand 1); 24 bp duplex, 5' overhang 30 nt on template
T4 sequence: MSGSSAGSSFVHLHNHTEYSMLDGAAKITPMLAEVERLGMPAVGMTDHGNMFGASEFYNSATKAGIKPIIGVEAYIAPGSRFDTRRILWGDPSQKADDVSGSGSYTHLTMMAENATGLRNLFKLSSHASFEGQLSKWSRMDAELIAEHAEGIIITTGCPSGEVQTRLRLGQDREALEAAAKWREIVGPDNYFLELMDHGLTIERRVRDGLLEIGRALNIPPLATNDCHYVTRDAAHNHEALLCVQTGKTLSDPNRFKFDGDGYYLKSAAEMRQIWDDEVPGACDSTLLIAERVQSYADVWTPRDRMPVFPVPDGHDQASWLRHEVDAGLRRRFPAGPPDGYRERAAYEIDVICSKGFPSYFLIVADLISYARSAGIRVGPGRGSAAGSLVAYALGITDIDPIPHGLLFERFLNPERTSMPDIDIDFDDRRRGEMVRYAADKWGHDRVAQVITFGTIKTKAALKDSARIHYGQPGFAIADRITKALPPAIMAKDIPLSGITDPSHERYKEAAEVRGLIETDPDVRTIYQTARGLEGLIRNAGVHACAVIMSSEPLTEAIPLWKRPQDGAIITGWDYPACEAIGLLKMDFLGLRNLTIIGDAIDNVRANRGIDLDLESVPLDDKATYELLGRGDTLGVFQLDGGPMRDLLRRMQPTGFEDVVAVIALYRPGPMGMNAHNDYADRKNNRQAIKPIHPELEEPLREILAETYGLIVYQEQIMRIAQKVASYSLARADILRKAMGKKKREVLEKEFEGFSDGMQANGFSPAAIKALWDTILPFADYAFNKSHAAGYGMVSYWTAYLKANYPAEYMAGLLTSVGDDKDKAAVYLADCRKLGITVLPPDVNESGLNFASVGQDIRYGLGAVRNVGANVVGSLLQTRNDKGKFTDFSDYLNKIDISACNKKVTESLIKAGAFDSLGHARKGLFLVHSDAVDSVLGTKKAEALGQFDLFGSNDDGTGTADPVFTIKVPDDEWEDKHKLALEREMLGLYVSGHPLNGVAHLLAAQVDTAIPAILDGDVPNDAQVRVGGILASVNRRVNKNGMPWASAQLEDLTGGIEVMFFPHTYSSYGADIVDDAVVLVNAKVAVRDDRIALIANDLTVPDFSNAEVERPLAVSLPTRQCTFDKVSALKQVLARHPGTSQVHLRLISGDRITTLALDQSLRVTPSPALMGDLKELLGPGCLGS

[5] = target: T4, DnaE1 (replicative DNA polymerase); test: cryo-EM structure (2.9 Å); 10 uM nargenicin, 5 mM MgCl2; conditions: protein: recombinant

T2 sequence (P10443 whole entry): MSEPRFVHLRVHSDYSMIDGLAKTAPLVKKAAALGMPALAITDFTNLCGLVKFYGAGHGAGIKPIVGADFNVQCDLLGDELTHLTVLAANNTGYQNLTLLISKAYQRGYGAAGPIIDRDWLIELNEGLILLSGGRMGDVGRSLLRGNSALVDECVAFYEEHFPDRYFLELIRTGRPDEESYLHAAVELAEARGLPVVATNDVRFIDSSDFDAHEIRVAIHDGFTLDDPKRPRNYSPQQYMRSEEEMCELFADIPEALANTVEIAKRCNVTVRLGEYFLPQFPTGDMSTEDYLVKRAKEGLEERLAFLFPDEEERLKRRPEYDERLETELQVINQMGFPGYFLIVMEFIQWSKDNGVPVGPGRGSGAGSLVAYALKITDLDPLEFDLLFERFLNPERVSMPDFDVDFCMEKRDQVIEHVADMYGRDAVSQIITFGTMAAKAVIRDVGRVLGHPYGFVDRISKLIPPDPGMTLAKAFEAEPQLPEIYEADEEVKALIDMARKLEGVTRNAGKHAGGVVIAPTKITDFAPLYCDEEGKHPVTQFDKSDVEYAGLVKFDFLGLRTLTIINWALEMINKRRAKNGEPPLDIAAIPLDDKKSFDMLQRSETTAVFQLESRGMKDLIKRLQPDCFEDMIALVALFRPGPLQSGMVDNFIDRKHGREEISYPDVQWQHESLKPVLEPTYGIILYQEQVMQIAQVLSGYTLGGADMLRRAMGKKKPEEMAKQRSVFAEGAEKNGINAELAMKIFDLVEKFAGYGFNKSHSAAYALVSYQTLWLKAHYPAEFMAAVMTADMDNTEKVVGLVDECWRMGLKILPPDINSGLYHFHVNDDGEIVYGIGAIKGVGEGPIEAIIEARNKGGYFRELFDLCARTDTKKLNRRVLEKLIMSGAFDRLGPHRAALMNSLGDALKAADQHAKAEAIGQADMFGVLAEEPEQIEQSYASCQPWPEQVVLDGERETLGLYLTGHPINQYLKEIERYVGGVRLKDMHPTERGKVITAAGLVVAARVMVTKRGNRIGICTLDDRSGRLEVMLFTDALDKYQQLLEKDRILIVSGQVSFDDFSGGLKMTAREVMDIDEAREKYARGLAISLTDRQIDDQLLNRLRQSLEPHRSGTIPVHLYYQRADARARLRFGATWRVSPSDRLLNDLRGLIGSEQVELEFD

With COC1CC2C=CC3C4OC2(/C(C)=C/C(C)C(C(C)O)OC1=O)C3C(O)C(C)C4OC(=O)c1ccc[nH]1 (centres unmarked) [nargenicin] the IC50 (DnaE1) was 125 nM, the IC50 [1] was 13000 nM and the IC50 (DnaE) was 6 nM.

B1: primed DNA substrate (anisotropy) (dsDNA)
DNA 1: GGTAACGCCAGGGTTTTCCCAGTC
DNA 2: CGCTCACTGGCCGTCGTTTTACAACGTCGTGACTGGGAAAACCCTGGCGTTACC
In the case of B1, the Kd [2] is reported as 6 nM, the Kd (DnaE S765L) is reported as 85 nM and the Kd [3] is reported as 12000 nM. The Kd [4] was 250 nM.

B2: cryo-EM primer/template substrate (dsDNA)
DNA 1: GCACCTAAAGTTGGGAGTCCTTCGTCCTT
DNA 2: GATAGAGCAGAAGGACGAAGGACTCCCAACTTTAGGTG
modifications: phosphorothioate bond between the last two nt of the primer (T*T)
B2: binds [5].
